The record followed here is paper PMC4923194, “The Crystal Structure of the C-Terminal Domain of the Salmonella enterica PduO Protein: An Old Fold with a New Heme-Binding Mode” (Frontiers in Microbiology, 2016).

In general, Kd refers to the free concentration of one partner at which half of the binding sites on the other are occupied at equilibrium, for simple one-to-one binding. As a reminder, the stoichiometry N is the number of molecules, sites or subunits per partner or assembly.

For data set [1], the target named is T1, PduO C-terminal domain (PduOC) (Salmonella enterica, UniProt A0A0F6B395).
T1 construct: C-terminal domain PduOC, 147 residues, His-tag-free; octamer with 4 hemes
Kind of data set: crystal structure ([…] Å) and ITC; UV/Vis titration. Format: binding.

Data set [2] concerns the target PduOC-His18Ala (H18A) mutant (Salmonella enterica subsp. enterica serovar Typhimurium). Put plainly: SEC-MALS; Superdex 200 increase 10/300 GL in 100 mM Tris-HCl pH 8, 150 mM NaCl, with multi-angle static light scattering and refractive index detectors; wild type as PduOC:heme, H18A without heme.
Data set [3] deals with the molecule itself. Described as above.
Data set [4] concerns the molecule itself. Kind of data set: SEC; gel filtration of the PduOC apoprotein (heme extracted); data not shown. A general note: In gel filtration, larger molecules generally elute earlier.

Molecule `C=CC1=C(C)C2=Cc3c(C=C)c(C)c4[n]3[Fe][n]3c(c(C)c(CCC(=O)O)c3=CC3=NC(=C4)C(C)=C3CCC(=O)O)=CC1=N2` [heme B] gave a Kd in data set [1] of 160 nM.

Turning to “PduOC-His18Ala (H18A) mutant (domain or fragment)”, the stoichiometry N in data set [2] is 2.

B1: C-terminal domain of the Salmonella enterica PduO protein (PduOC) (domain or fragment)
chain: KETTPVALSFHDLHQLTRAAVERAQQLQVPVVVSIVDAHGTETVTWRMPDALLVSSELAPKKAWTAVAMKTATHELSDVVQPGAALYGLESHLQGKVVTFGGGYALWRDGILIGGLGISGGSVEQDMDIAQTAIAAINVGTHQ
notes: PduO, ATP:Cob(I)alamin adenosyltransferase of S. enterica subsp. enterica serovar Typhimurium; C-terminal domain (PduOC); the His-tag-free monomer has 147 residues; the N-terminal domain (PduON) has 197 residues; excess heme B added to the lysate for crystallography; Residues left by the pETM11 vector after TEV cleavage are probably counted in the 147 residues (surmise); also called PduOC:heme; …
On to B1, for which the “stoichiometry N” value in data set [3] stood at 8; in data set [4], 2.
